# Legend:
# TGFβ1 = TGFβ1 (Homo sapiens, UniProt P01137 P01137:279-390); assay: cell_activity; full inhibition of TGFβ1 in mink lung epithelial cell proliferation assay; conditions: tags: recombinant human, R&D Systems; chain copies: 2
# Procedure: RNA was synthesized by phosphoramidite chemistry. Indicator cells (mink lung epithelial cells) were incubated with TGFβ1 and dilutions of RNA as described. The extent of cell proliferation was measured by ³H-thymidine incorporation and the data were analyzed as described. The points represent an average of n=2 and error bars are standard errors. The sequence of CD70syn and 30N7-9syn are 5′[…] (SEQ ID NO:323) and 5′[…] (SEQ ID NO:324), respectively.
# The bioactivity of TGFβ1 nucleic acid ligands was measured with mink lung epithelial cells as described in U.S. patent application Ser. No. 09/046,247, filed Mar. 23, 1998. Briefly, proliferation of these cells is inhibited by TGFβ1. Human TGFβ1 was titrated on the cells and ³H-thymidine incorporation was measured. The point at which ³H-thymidine incorporation by the cells was inhibited by 90-100% was determined (typically 1-4 pM). This inhibitory amount of TGFβ1 along with varying amounts of nucleic acid ligand (typically 0.3 or 1 nM to 1 or 3 μM, in 3 fold increments) was used. Cells were plated at 1×10⁵/ml in 96-well plates in 100 μl MEM, 10 mM HEPES pH 7.5, 0.2% FBS. […] After incubation, the cells were lysed with 1% Triton X-100 and harvested onto GF/B filter plates by the Packard 96 well plate harvester, and ³H-thymidine incorporation in cellular DNA was quantitated by scintillation counting in microscint at the Packard Top-Count. […]
# [1] = biological target: T1, MS2 coat protein (MS2 CP) (bacteriophage MS2, UniProt P03612 P03612:2-130, V75E;A81G); assay: filter; tightest of the isolates; 100 mM HEPES-KOH pH 7.5, 80 mM KCl, 10 mM MgCl2, 24-25 C; conditions: chain copies: 2 (dimer, stated); hairpin
# [2] = biological target: T1, MS2 coat protein (MS2 CP); assay: filter; only marginally worse than full isolate; conditions: chain copies: 2 (dimer, stated); hairpin
# VEGF [3] = biological target: T2, VEGF (Homo sapiens, UniProt P15692-4 P15692-4:27-191); assay: filter; phenotype 4: unaffected (Table 10 clone 34,36a: phenotype 1); conditions: tags: recombinant human, R&D Systems; chain copies: 2
# T2 sequence (P15692 other isoform, or with tags, fused parts or gaps): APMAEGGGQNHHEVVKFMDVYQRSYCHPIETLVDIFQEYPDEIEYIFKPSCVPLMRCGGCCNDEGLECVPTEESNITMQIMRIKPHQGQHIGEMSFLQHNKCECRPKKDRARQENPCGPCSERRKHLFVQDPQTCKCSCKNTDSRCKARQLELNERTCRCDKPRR
# VEGF [4] = biological target: T2, VEGF; assay: filter; phenotype 5: non-binding with or without 3' fixed sequence; conditions: tags: recombinant human, R&D Systems; chain copies: 2
# Sequence of TGFβ1 (P01137 279-390, one chain of several): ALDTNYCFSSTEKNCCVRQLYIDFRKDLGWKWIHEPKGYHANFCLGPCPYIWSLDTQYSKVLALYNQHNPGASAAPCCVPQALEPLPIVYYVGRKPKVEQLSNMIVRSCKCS
binder,measurement,setting,value
"GGGUGCCUUUUGCCUAGGUUGUGAUUUGUAACCUUCUGCCCA (ssRNA, 2'-F pyrimidines (inferred)) [CD70syn]",Ki,TGFβ1,~74.6 nM
rffG isolate 1 (ssRNA) RNA: GGGAAAGCCCACGCCGGCACGCGUAUUCACUGAGCAUCAGCCAGACUGUGUACCGAACUGCCGCACC,binding result,[1],binds
GGCACGCGUAUUCACUGAGCAUCAGCCAGACUGUGU (ssRNA) [rffG minus fixed sequences],binding result,[2],binds
"VEGF hyb 10,16b (ssRNA, 2'-F pyrimidines) RNA: GGGAGGACGAUGCGGUGAAACGGAAGAAUUGGAAACAUUGCUCGUCAGACGACUCGCCCGA",binding result,VEGF [3],binds
"GGGAGGAAGAAUUGGAAACAUUGCUCGUCAGACGACUCGCCCGA (ssRNA, 2'-F pyrimidines) [T1-11]",binding result,VEGF [4],no binding

# From patent US20030003461, “Truncation selex method” (Gilead Sciences, Inc., published 2003)
